Reference: the supplement of paper PMC10065799, “High-throughput profiling of sequence recognition by tyrosine kinases and SH2 domains using bacterial peptide display” (eLife, 2023)

Target: c-Src SH2
Assay: SH2 binding enrichment of the phosphorylated peptide, bacterial display (enrichment ratio); higher = better substrate or ligand; peptides without Tyr show the background
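Further: peptide library displayed on the E. coli surface as eCPX fusions, selected cells deep-sequenced, score is each peptide's frequency after selection divided by its frequency in the input.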

Sequence	SH2 binding enrichment
LLNPRYNLPLD [TOM1L1_Y109]	1.16
SDGHEYIFVDR [PDGFRB_Y579_P584R_YF]	0.636
ECKHLYSRKEG [PTPN11_Y263_L261H]	0.717
WDLPEYSYKDP [ITGA3_Y237_S235P]	0.784
AHPIIYTIIEA [PYKtide_no-pT_2014]	1.5
GKMPQYLESMQ [CYB5R3_Y130_S128P]	0.571
DFEGLYQEGGG [TMEM159_Y159_E154D]	0.453
FKDYFYCWNTS [AICDA_Y146_F151S]	0.375
WNDLDYVDSRR [GAA_Y407_M408V]	0.643
REQREYLEQLN [CCDC88B_Y1277_D1279E]	0.52
MKKMHYVDPDR [ST3GAL5_Y99_H104R]	0.567
TESALYGCTVL [KIAA1804_Y724]	0.552
FTTIHYNFMCN [TP53_Y234_C229Y_YF]	0.634
PRSRSYFSTSI [REPS2_Y462_S463F]	0.769
HLELNYKEDEY [MME_Y502_Y497H]	0.483
FQNGMYGLHQD [SGSH_Y89_H84Y_YF]	0.459
HVSISYDIPPT [GAB1_Y307]	0.702

Sequence	SH2 binding enrichment
IQRSLYDCPAS [PDGFRA_Y762_R764C]	2.57
IPPRRYFCSGV [STAMBP_Y36_R38C]	0.416
FEPDAYDDLDQ [ELP5_Y302_YF]	0.623
RQNQEYEILLD [KRT39_Y379]	1.21
AKYLGYPPPEI [KDR_Y357]	0.43
RLLVVYPWTQG [HBG2_Y36_R41G]	1.66
EEGRVYVFHLS [ITGAE_Y549_R552H_YF]	0.482
DKATEYIQYMR [MAX_Y70]	0.469
RSPLRYISILT [OR51B6_Y130_T131I]	1.07
LQTFRYHGLSM [PDHA1_Y289_H292L_YF]	0.486
QYQLKYSETPF [SIX6OS1_Y129]	0.607
KNSFKYYMSDD [ATRX_Y203_C200S]	0.708
TSQSQYFSFRE [CCDC170_Y323]	0.796
TEAEPYYCSLR [NPHS1_Y1138_R1140C]	1.22
EVKAQNEDIAQ [KRT1_Y358_Y358N]	0.587
RHPFFFAPELL [ALB_Y174_Y174F_YF]	1.05

Target: Grb2 SH2 (UniProt P62993)
Assay: as above

Sequence of Grb2 SH2 (P62993 whole entry, looked up): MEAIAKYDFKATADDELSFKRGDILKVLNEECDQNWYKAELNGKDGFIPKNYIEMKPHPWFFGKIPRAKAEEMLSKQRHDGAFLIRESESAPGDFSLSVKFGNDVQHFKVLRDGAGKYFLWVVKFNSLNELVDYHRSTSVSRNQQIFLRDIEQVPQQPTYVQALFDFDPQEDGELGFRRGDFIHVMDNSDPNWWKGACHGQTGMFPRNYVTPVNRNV

Sequence	SH2 binding enrichment
LLNPRYNLPLD [TOM1L1_Y109]	0.856
SDGHEYIFVDR [PDGFRB_Y579_P584R_YF]	0.845
ECKHLYSRKEG [PTPN11_Y263_L261H]	0.995
WDLPEYSYKDP [ITGA3_Y237_S235P]	0.89
AHPIIYTIIEA [PYKtide_no-pT_2014]	1.21
GKMPQYLESMQ [CYB5R3_Y130_S128P]	0.906
DFEGLYQEGGG [TMEM159_Y159_E154D]	0.67
FKDYFYCWNTS [AICDA_Y146_F151S]	0.73
WNDLDYVDSRR [GAA_Y407_M408V]	0.903
REQREYLEQLN [CCDC88B_Y1277_D1279E]	0.679
MKKMHYVDPDR [ST3GAL5_Y99_H104R]	0.879
TESALYGCTVL [KIAA1804_Y724]	0.82
FTTIHYNFMCN [TP53_Y234_C229Y_YF]	1.08
PRSRSYFSTSI [REPS2_Y462_S463F]	1.08
HLELNYKEDEY [MME_Y502_Y497H]	0.692
FQNGMYGLHQD [SGSH_Y89_H84Y_YF]	0.748
HVSISYDIPPT [GAB1_Y307]	0.688

Sequence	SH2 binding enrichment
IQRSLYDCPAS [PDGFRA_Y762_R764C]	0.783
IPPRRYFCSGV [STAMBP_Y36_R38C]	0.691
FEPDAYDDLDQ [ELP5_Y302_YF]	1.03
RQNQEYEILLD [KRT39_Y379]	1.19
AKYLGYPPPEI [KDR_Y357]	0.831
RLLVVYPWTQG [HBG2_Y36_R41G]	2.61
EEGRVYVFHLS [ITGAE_Y549_R552H_YF]	0.888
DKATEYIQYMR [MAX_Y70]	0.938
RSPLRYISILT [OR51B6_Y130_T131I]	1.01
LQTFRYHGLSM [PDHA1_Y289_H292L_YF]	0.886
QYQLKYSETPF [SIX6OS1_Y129]	0.868
KNSFKYYMSDD [ATRX_Y203_C200S]	0.848
TSQSQYFSFRE [CCDC170_Y323]	1.15
TEAEPYYCSLR [NPHS1_Y1138_R1140C]	0.893
EVKAQNEDIAQ [KRT1_Y358_Y358N]	0.977
RHPFFFAPELL [ALB_Y174_Y174F_YF]	1.34
